# Assay results reported in publication PMC2925294.
# Read-outs that look alike come from different tables or passages of the source.
# Tests used:
# Test in all cases: cryo-EM structure
# [1] = molecular target: epsilon15 bacteriophage capsid stapling protein gp10 (epsilon15 bacteriophage)
# [2] = molecular target: epsilon15 bacteriophage capsid stapling protein gp10 (epsilon15 bacteriophage); remark: listed apart in the source
# [3] = molecular target: epsilon15 bacteriophage tail hub (epsilon15 bacteriophage)
# [4] = molecular target: epsilon15 bacteriophage tail-spike (gp20) (epsilon15 bacteriophage)
substance,measurement,setting,value
epsilon15 bacteriophage capsid stapling protein gp10 (natural protein),stoichiometry N,[1],2
same,stoichiometry N,[2],2
epsilon15 bacteriophage tail hub (natural protein),stoichiometry N,[3],6
epsilon15 bacteriophage tail-spike (gp20) (natural protein),stoichiometry N,[4],3
